In patent US20160040149A1, “Compositions Having Dicamba Decarboxylase Activity and Methods of Use” (priority 2013, published 2016):
Residue numbers refer to the chain shown, from its start.

B1: 583 (protein)
chain: MAQGKVALEEHFAIPETLQDAAGFVPGDYWKELQHRLLDIQDTRLKEMDKHEIGTMILSLAAPAVQGIPDRRKAIELAKRANDFLAEEVAKRPDRFLAFAALPLQDPEAATEELQRCVNDLGFVGAMVNGFSQEGDGQTPLYYDLPQYRPFWKEVEKLDVPFYLHPRNPLPQDSRIYDGHPWLLGPTWAFAQETAVHALRLMASGLFDEHPRLNIILGHLGEGLPYMMYRIDHRIAWVKAPPRYPAKRRFMDYFLENFWITTSGNFRTQTLIDAILEIGADRILFSTDWPFENIDHAADWFAATSIAEADRVKIGRTNARRLFKLDVR
modifications: Dicamba decarboxylase variant
B2: 586 (protein)
chain: B1 chain with K5L, I57V, G67A, K79R, P107V, E108D, K239H, R243D, W259H, A302N
modifications: Dicamba decarboxylase variant
B3: 103 (protein)
chain: MAMEIPTEEIKFLKKEDVQNIDLNGMSKKERYEIWRRIPKVELHCHLDLTFSAEFFLKWARKYNLQPNMSDDEILDHYLFTKEGKSLAEFIRKAISVSDLYRDYDFIEDLAKWAVIEKYKEGVVLMEFRYSPTFVSSSYGLDVELIHKAFIKGIKNATELLNNKIHVALICISDTGHAAASIKHSGDFAIKHKHDFVGFDHGGREIDLKDHKDVYHSVRDHGLHLTVHAGEDATLPNLNTLYTAINILNVERIGHGIRVSESDELIELVKKKDILLEVCPISNLLLNNVKSMDTHPIRKLYDAGVKVSVNSDDPGMFLSNINDNYEKLYIHLNFTLEEFMIMNNWAFEKSFVSDDVKSELKALYF
modifications: Plasmodium yoelii yoelii
B4: 106 (protein, listed as Pyrococcus horikoshii)
chain: MAGMKFIKNLHVSKLVIDSMKALINGTIYTSFNPLKKVSGLVISHGKVIYAGDSEVAKKIVELSGGEIVDLKGKYVMPAFFDSHLHLDELGMSLEMVDLRGAKSIEELIQRLKRGKGRIIFGFGWDQDELGEWPTRKELNAIDKPVFIYRKCFHVAVANDKMLELLNLTPSKDFDEDTGIIKEKSLEEARKVINERVLTVEDYVYYIKRAQEHLLDLGVKSVSFMSVNEKALRALFYLEREGKLSINVFAYVTPEVLDKLESIGLGRFQGNRLTIAGVKLFTDGSLGARTALLSKPYSDDPSTSGQLVMEREELIRITEKARSLGLDVAIHAIGDKALDVALDVFETTGFPGRIEHASLVRDDQLERVKNLKVRLSVQPHFIISDWWIVERVGEERVKWVYRFKDLMKVAELGFSTDSPIEPADPWLTVDAAVNRGKGKVKLYELTKDQALDIKDALHSYTYGSARVSLASDIGKLEPGFKAEYIILDRDPLVVK
B5: 584 (protein)
chain: MAQGKVALEEHFAIPETLNDAAGFVPGDYWKELQHRLLDIQDTRLKEMDKHGIGTMILSLAAPAVQGIVDRRQAIEIAKRANDFLAEEVAKRPDRFLAFAALPLQDPDAATSELQRCVADLGFVGAMVNGFSQEGDGQTPLYYDLPQYRPFWKEVEKLDVPFYLHPRNPLPQDARIYDGHPWLLGPTWAFAQETAVHALRLMASGLFDEHPRLNIILGHMGEGLPYMMYRIDHRIAWVKAPPDYPAKRRFMDYFLENFHITTSGNFRTQTLIDAILEIGADRILFSTDWPFENIDHAADWFAATSIAEADRVKIGRTNARRLFKLDVR
modifications: Dicamba decarboxylase variant
B6: 96 (protein)
chain: MAPLIVDVHTHVYPPAYMQMLRSRKTVPYVHDPSNNRDPRLIILSSDDDASIPLDQRGRPVDSSYWDINVKLSFMRQHGINCSVISLANPWLDFVEPAEAQMWAERINDDLEKTCATVNKAADPGNTLTLDQKETLFAFGALPLSAPSSESVVAEIKRLKTLEHLRGVIMGTSGLGKGLDDARLDPVWEALQETDMLMFLHPHYGLPEEAYGGPETTGRYGHVLPLALGFPLETTIAVTRMLLSGVFDRFPRLKILLAHSGGTLPFLAGRIESCILHERKFISGGGDVQGPQRSVWDVLKTNIYLDAVVYGKPGLEAAMTASGSDRLLFGTDHPFFPPLDSKDNSWPSVTTNYQAIHATFDTNSKTVADVLGGNAARILNLK
modifications: Aspergillus nidulans
B7: 104 (protein)
chain: MANILQEPIDFLKKEELKNIDLSQMSKKERYKIWKRIPKCELHCHLDLCFSADFFVSCIRKYNLQPNLSDEEVLDYYLFAKGGKSLGEFVEKAIKVADIFHDYEVIEDLAKHAVFNKYKEGVVLMEFRYSPTFVAFKYNLDIELIHQAIVKGIKEVVELLDHKIHVALMCIGDTGHEAANIKASADFCLKHKADFVGFDHGGHEVDLKEYKEIFDYVRESGVPLSVHAGEDVTLPNLNTLYSAIQVLKVERIGHGIRVAESQELIDMVKEKNILLEVCPISNVLLKNAKSMDTHPIRQLYDAGVKVSVNSDDPGMFLTNINDDYEELYTHLNFTLEDFMKMNEWALEKSFMDSNIKDKIKNLYF
modifications: Plasmodium Vivax
B8: 585 (protein)
chain: MAQGKVALEEHFAIPETLQDAAGFVPGDYWKELQHRLMDIQDTRLKEMDKHEIGTMVLSLAAPAVQAIPDRRKAIELAKRANDFLAEEVAKRPDRFLAFAALPMQDPEAATEELQRCVADLGFVGAMVNGFSQEGDGQTPLYYDLPQYRPFWGEVEKLDVPFYLHPRNPLPQDARIYDGHPWLLGPTWAFAQETAVHALRLMASGLFDEHPRLNIILGHMGEGLPYMMYRIDHRIAWVKAPPDYPAKRRFMDYFLENFWITTSGNFRTQTLIDAILEIGADRILFSTDWPFENIDHAADWFAATSIAEADRVKIGRTNARNLFKLDVS
modifications: Dicamba decarboxylase variant
B9: 98 (protein)
chain: MAIIDCHGHYTTAPAAHDAFRKAQIAHHDDPQQPAPQYPHISDDALRESIEQHQLRLLRERGADMTIFSPRASTMAHHIGNEAVSQVWTQRCNDLIARVVQLYPHTFIGVCQLPQSPGVPISHSIAELERCVNELGFVGCNLNPDPSGGHWNGVPLTDRAWYPFFEKMVELDVPAMVHVSGSCNANFHATGAHYLNADTTAFMQFLEGDLFRDFPSLRFIIPHGGGAVPYHWGRFRGLADMLGKPPLATHVMRNVFFDTCVYHQPGIDLLFEVIDIDNILFGSEMVGAVRGIDPQTGHYFDDTKRYIDALTISDADKRKVFEGNARRVYPRLDAQLRARGL
modifications: Xanthomonas campestris pv.
B10: 6 (protein)
chain: MAEILSPEESIYYSKLSNDILAEGIKKNPTRFRGFAALPTPDPIQAAMELERCIKLGGFVGAIINGHINGHYLDEIQFDPILEAADALDVPLYIHPAVPPKAIIDTYYKMNDTYAQTVMVSGGWGWHIETGVHVLRLISSGVFDRHPNLKIVIGHLGEGLPFFMHRLNNAIGGNLKKSYSTYLKENIYYTISGFNDPDLFQFVLKKVGENNIMFSSDYPFNFPKREVELFNELNISEEVREKISFKNAERILKI
modifications: Treponema brennaborense
B11: 105 (protein)
chain: MAIDFHVHLDLYPDPVAVARACEERQLTVLSVTTTPAAWRGTLALAAGRPHVWTALGFHPEVVSERAADLPWFDRYLPETRFVGEVGLDGSPSLRGTWTQQFAVFQHILRRCEDHGGRILSIHSRRAESEVLNCLEANPRSGTPILHWYSGSVTELRRAISLGCWFSVGPTMVRTQKGAALIRSMPRDRVLTETDGPFLELDGQAALPWDVKSVVEGLSKIWQIPASEVERIVKENVSRLLGTVR
modifications: Deinococcus radiodurans
B12: 101 (protein, listed as Aquifex aeolicus)
chain: MAQKIALCITGASGVIYGIKLLQVLEELDFSVDLVISRNAKVVLKEEHSLTFEEVLKGLKNVRIHEENDFTSPLASGSRLVHYRGVYVVPCSTNTLSCIANGINKNLIHRVGEVALKERVPLVLLVREAPYNEIHLENMLKITRMGGVVVPASPAFYHKPQSIDDMINFVVGKLLDVLRIEHNLYKRWRG
B13: 99 (protein, listed as Ralstonia solanacearum)
chain: MAIIDCHGHFTTAPTALEDWRKRQIANLATPALGPSPDDLKISDDALTEAIRANQLRLMQARGSDLTIFSPRASFMAHHIGDFHTSATWAAICNALCHRVSQLFPDHFVGAAMLPQSPGVDIRTCIPELARCIVDYGFVGVNLNPDPSGGHWTSPPLSDPYWFPLYEKLVEYDVPAMIHVSTSCNACFHTTGAHYLNADTTAFMQVLTSDLFRRFPTLKFVIPHGGGAVPYHWGRFRGLAQELKTPPLQEHLLHNVFFDTCVYHQPGIDLLTRVIPVDNILFASEMIGAVRGIDPETGHPFDDTRRYIDQAHTLSAEDRHKIYEGNARRVYPRLDARLKARGR
B14: 102 (protein, listed as Lactobacillus plantarum)
chain: MATKTFKTLDDFLGTHFIYTYDNGWEYEWYAKNDHTVDYRIHGGMVAGRWVTDQKADIVMLTEGIYKISWTEPTGTDVALDFMPNEKKLHGTIFFPKWVEEHPEITVTYQNEHIDLMEQSREKYATYPKLVVPEFANITYMGDAGQNNEDVISEAPYKEMPNDIRNGKYFDQNYHRLNK
B15: 97 (protein, listed as Sphingobium sp.)
chain: MAMMIIDCHGHYTVLPKAHDEWREQQKAAFKAGQPAPPYPEISDDEIRETIEANQLRLIKERGADMTIFSPRASAMAPHVGDQSVAVPWAQACNNLIARVVDLFPETFAGVCMLPQSPEADMTSSIAELERCVNELGFIGCNLNPDPGGGHFKHPPLTDRFWYPFYEKMVELDVPAMIHVSGSCNPAMHATGAYYLAADTIAFMQLLQGNLFADFPTLRFIIPHGGGAVPYHWGRFRGLADMLKQPSLDTLLMNNVFFDTCVYHQPGINLLADVIDNKNILFGSEMVGAVRGIDPTTGHYFDDTKRYIDALDISDQERHAIFEGNTRRVFPRLDAKLKARGL

Tests used:
[1] = DNA shuffling libraries: 14CO2 capturing assay in 384-well format, fold activity of backbone (Megatable 2); settings: relative to backbone SEQ ID NO: 509 (DDEC0810)
[2] = Saturation mutagenesis of SEQ ID NO:109: dicamba decarboxylation activity of point mutants (CO2 released), fold of backbone (Tables 7, 8, Megatable 1); settings: decarboxylation activity (CO2 released) of point mutant vs unmutated backbone protein; backbone SEQ ID NO: 109

Molecule | Fold Activity [1] [fold] | Fold Activity [2] [fold]
B1 | 1.0 | 
B2 | 1.2 | 
B3 |  | 1.7
B4 |  | 0.8
B5 | 0.9 | 
B6 |  | 1.1
B7 |  | 2.1
B8 | 1.8 | 
B9 |  | 2.3
B10 |  | 0.9
B11 |  | 0.9
B12 |  | 1.8
B13 |  | 1.7
B14 |  | 2.6
B15 |  | 2.9
